Data: publication PMC3642127, “Distinguishable In Vitro Binding Mode of Monomeric TRBP and Dimeric PACT with siRNA” (PLoS ONE, 2013)
Values belong to the binder of their own block, whether it stands above or below them.

How the values were obtained:
TRBP-WT [1] = target: T1, TRBP-WT (human, UniProt Q15633 1-366); assay: EMSA; EMSA: 20 mM Tris pH 7.5, 150 mM NaCl, 2 mM EDTA, 1 mM 2-mercaptoethanol, 1 mM DTT, 50 ng/ul salmon sperm DNA, 0.4 U/ul RNasin, 0.5 nM 32P-siRNA, 30 min on ice; settings: protein: recombinant, tags: N-His6;C-myc, label: 32P
T1 sequence: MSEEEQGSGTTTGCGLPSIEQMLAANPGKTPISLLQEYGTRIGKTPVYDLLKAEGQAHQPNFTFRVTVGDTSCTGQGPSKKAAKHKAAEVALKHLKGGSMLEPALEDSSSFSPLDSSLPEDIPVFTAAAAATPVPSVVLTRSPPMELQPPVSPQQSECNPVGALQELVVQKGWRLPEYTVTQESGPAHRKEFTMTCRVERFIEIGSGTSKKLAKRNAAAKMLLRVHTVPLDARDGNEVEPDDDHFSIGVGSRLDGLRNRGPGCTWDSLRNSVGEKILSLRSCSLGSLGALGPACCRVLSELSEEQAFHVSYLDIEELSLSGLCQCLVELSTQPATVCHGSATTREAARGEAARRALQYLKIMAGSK

TRBP-WT [2] = target: T1, TRBP-WT; assay: EMSA; complex 1 (monomer); EMSA: 20 mM Tris pH 7.5, 150 mM NaCl, 2 mM EDTA, 1 mM 2-mercaptoethanol, 1 mM DTT, 50 ng/ul salmon sperm DNA, 0.4 U/ul RNasin, 0.5 nM 32P-siRNA, 30 min on ice; settings: protein: recombinant, tags: N-His6;C-myc, label: 32P guide strand
TRBP-ΔdsRBD3 = target: T2, TRBP-ΔdsRBD3 (human, UniProt Q15633 1-292); assay: EMSA; complex 1; EMSA: 20 mM Tris pH 7.5, 150 mM NaCl, 2 mM EDTA, 1 mM 2-mercaptoethanol, 1 mM DTT, 50 ng/ul salmon sperm DNA, 0.4 U/ul RNasin, 0.5 nM 32P-siRNA, 30 min on ice; settings: protein: recombinant; tags: N-His6;C-myc; label: 32P guide strand; 2 nt 3' overhangs
T2 sequence: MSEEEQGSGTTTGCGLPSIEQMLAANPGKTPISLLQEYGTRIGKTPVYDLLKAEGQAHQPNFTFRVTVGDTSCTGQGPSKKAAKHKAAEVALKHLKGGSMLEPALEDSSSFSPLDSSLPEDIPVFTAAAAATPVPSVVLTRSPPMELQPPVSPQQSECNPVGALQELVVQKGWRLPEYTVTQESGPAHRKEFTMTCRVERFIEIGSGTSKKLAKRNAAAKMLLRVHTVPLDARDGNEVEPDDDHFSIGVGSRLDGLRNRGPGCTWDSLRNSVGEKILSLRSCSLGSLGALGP

[3] = target: T3, PACT-WT (N-terminal His- and C-terminal myc-tagged protein activator of PKR) (human), O75569; assay: SEC; Superdex 200 HR 10/30; purified protein (TRBP proteins 1,300 nM, 330-1,300 nM in Figure S3; PACT concentration not stated) pre-incubated with siLuc-36 siRNA (300 nM) 30 min on ice; 20 mM Tris pH 7.5, 150 mM NaCl, 2 mM EDTA, 1 mM 2-mercaptoethanol, 1 mM DTT; fractions blotted with anti-myc; settings: remark: other sources report otherwise
T3 chain: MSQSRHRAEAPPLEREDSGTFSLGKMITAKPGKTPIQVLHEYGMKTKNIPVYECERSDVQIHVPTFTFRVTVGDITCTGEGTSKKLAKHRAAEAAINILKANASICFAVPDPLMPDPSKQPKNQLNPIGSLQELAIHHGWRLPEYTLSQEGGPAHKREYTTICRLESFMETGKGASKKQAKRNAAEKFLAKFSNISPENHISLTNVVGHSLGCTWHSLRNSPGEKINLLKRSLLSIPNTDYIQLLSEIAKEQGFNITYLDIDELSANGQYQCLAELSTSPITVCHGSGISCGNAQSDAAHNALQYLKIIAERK

[4] = target: the molecule itself; assay: as above
[5] = target: the molecule itself; assay: native gel or EMSA; purified protein 0-1,300 nM with 0.5 nM 32P-labeled siRNA, 30 min on ice; 20 mM Tris pH 7.5, 150 mM NaCl, 2 mM EDTA, 1 mM 2-mercaptoethanol, 1 mM DTT, salmon sperm DNA, RNasin; 9% polyacrylamide gel; Kd from siRNA-binding curves; complex 2 = second protein molecule joining the protein-siRNA complex 1

Binder: UCGAAGUAUUCCGCGUACGUG (ssRNA) [ssRNA_Luc2-153]
- binding result (TRBP-WT [1]; single strand): no binding

B1: siLuc-18 (dsRNA)
RNA 1: GGCGCCGGGCCUUUCUUUAUG
RNA 2: UAAAGAAAGGCCCGGCGCCAU
- Kd (TRBP-WT [2]; 2 nt 3' overhangs): 5.8 nM

B2: siLuc-1430 (dsRNA)
RNA 1: CGGCGGCGGGAAGUUCACCGG
RNA 2: GGUGAACUUCCCGCCGCCGUU
- Kd (TRBP-WT [2]; 2 nt 3' overhangs): 5.7 nM

B3: siLuc-36 (dsRNA)
RNA 1: UCUUCCAGCGGAUAGAAUGGC
RNA 2: CAUUCUAUCCGCUGGAAGAUG
- Kd (TRBP-WT [2]; 2 nt 3' overhangs): 5.3 nM
- Kd (TRBP-ΔdsRBD3): 5 nM

B4: dsDNA_Luc2-153 (dsDNA)
DNA 1: TCGAAGTATTCCGCGTACGTG
DNA 2: CGTACGCGGAATACTTCGATT
- binding result (TRBP-WT [1]): no binding

B5: siLuc2-153B (dsRNA)
RNA 1: UCGAAGUAUUCCGCGUACGUG
RNA 2: CACGUACGCGGAAUACUUCGA
- Kd (TRBP-WT [2]; blunt): 5.1 nM

- stoichiometry N [3]: 2
B6: PACT-WT (N-terminal His- and C-terminal myc-tagged protein activator of PKR), O75569 1-313 (natural protein)
chain: MSQSRHRAEAPPLEREDSGTFSLGKMITAKPGKTPIQVLHEYGMKTKNIPVYECERSDVQIHVPTFTFRVTVGDITCTGEGTSKKLAKHRAAEAAINILKANASICFAVPDPLMPDPSKQPKNQLNPIGSLQELAIHHGWRLPEYTLSQEGGPAHKREYTTICRLESFMETGKGASKKQAKRNAAEKFLAKFSNISPENHISLTNVVGHSLGCTWHSLRNSPGEKINLLKRSLLSIPNTDYIQLLSEIAKEQGFNITYLDIDELSANGQYQCLAELSTSPITVCHGSGISCGNAQSDAAHNALQYLKIIAERK

B7: PACT-dsRBDmt2 (natural protein, human, UniProt O75569 1-313, looked up)
chain: MSQSRHRAEAPPLEREDSGTFSLGKMITAKPGKTPIQVLHEYGMKTKNIPVYECERSDVQIHVPTFTFRVTVGDITCTGEGTSKKLAKHRAAEAAINILKANASICFAVPDPLMPDPSKQPKNQLNPIGSLQELAIHHGWRLPEYTLSQEGGPAHKREYTTICRLESFMETGKGASAAQAKRNAAEKFLAKFSNISPENHISLTNVVGHSLGCTWHSLRNSPGEKINLLKRSLLSIPNTDYIQLLSEIAKEQGFNITYLDIDELSANGQYQCLAELSTSPITVCHGSGISCGNAQSDAAHNALQYLKIIAERK
notes: human PACT with lysines 177 and 178 in dsRBD2 replaced with alanines; source: E. coli Rosetta (DE3) pLysS, purified (Ni-NTA agarose); not shown: His6, N-terminal, kept; myc, C-terminal, kept
- stoichiometry N [4]: 2

B8: PACT-dsRBDmt1 (natural protein, human, UniProt O75569 1-313, looked up)
chain: MSQSRHRAEAPPLEREDSGTFSLGKMITAKPGKTPIQVLHEYGMKTKNIPVYECERSDVQIHVPTFTFRVTVGDITCTGEGTSAALAKHRAAEAAINILKANASICFAVPDPLMPDPSKQPKNQLNPIGSLQELAIHHGWRLPEYTLSQEGGPAHKREYTTICRLESFMETGKGASKKQAKRNAAEKFLAKFSNISPENHISLTNVVGHSLGCTWHSLRNSPGEKINLLKRSLLSIPNTDYIQLLSEIAKEQGFNITYLDIDELSANGQYQCLAELSTSPITVCHGSGISCGNAQSDAAHNALQYLKIIAERK
notes: human PACT with lysines 84 and 85 in dsRBD1 replaced with alanines; source: E. coli Rosetta (DE3) pLysS, purified (Ni-NTA agarose); not shown: His6, N-terminal, kept; myc, C-terminal, kept
- stoichiometry N [4]: 2

B9: siLuc-48 (dsRNA)
RNA 1: CCAGCGGUUCCAUCUUCCAGC
RNA 2: UGGAAGAUGGAACCGCUGGAG
- Kd (TRBP-WT [2]; 2 nt 3' overhangs): 33 nM

B10: siLuc-36B (dsRNA)
RNA 1: UCUUCCAGCGGAUAGAAUGGC
RNA 2: GCCAUUCUAUCCGCUGGAAGA
- Kd (TRBP-WT [2]; blunt): 4.5 nM

B11: siLuc-30 (dsRNA)
RNA 1: UCUUCAUAGAAUGGCGCCGGG
RNA 2: CGGCGCCAUUCUAUGAAGAUG
- Kd (TRBP-WT [2]; 2 nt 3' overhangs): 6.2 nM

B12: TRBP-dsRBDmt1 (natural protein, human, UniProt Q15633 1-366, looked up)
chain: MSEEEQGSGTTTGCGLPSIEQMLAANPGKTPISLLQEYGTRIGKTPVYDLLKAEGQAHQPNFTFRVTVGDTSCTGQGPSAAAAKHKAAEVALKHLKGGSMLEPALEDSSSFSPLDSSLPEDIPVFTAAAAATPVPSVVLTRSPPMELQPPVSPQQSECNPVGALQELVVQKGWRLPEYTVTQESGPAHRKEFTMTCRVERFIEIGSGTSKKLAKRNAAAKMLLRVHTVPLDARDGNEVEPDDDHFSIGVGSRLDGLRNRGPGCTWDSLRNSVGEKILSLRSCSLGSLGALGPACCRVLSELSEEQAFHVSYLDIEELSLSGLCQCLVELSTQPATVCHGSATTREAARGEAARRALQYLKIMAGSK
notes: full length human TRBP with lysines 80 and 81 in dsRBD1 replaced with alanines; source: E. coli Rosetta (DE3) pLysS, purified (Ni-NTA agarose); not shown: His6, N-terminal, kept; myc, C-terminal, kept
- binding result [5]: binds

B13: TRBP-dsRBDmt2 (natural protein, human, UniProt Q15633 1-366, looked up)
chain: MSEEEQGSGTTTGCGLPSIEQMLAANPGKTPISLLQEYGTRIGKTPVYDLLKAEGQAHQPNFTFRVTVGDTSCTGQGPSKKAAKHKAAEVALKHLKGGSMLEPALEDSSSFSPLDSSLPEDIPVFTAAAAATPVPSVVLTRSPPMELQPPVSPQQSECNPVGALQELVVQKGWRLPEYTVTQESGPAHRKEFTMTCRVERFIEIGSGTSAALAKRNAAAKMLLRVHTVPLDARDGNEVEPDDDHFSIGVGSRLDGLRNRGPGCTWDSLRNSVGEKILSLRSCSLGSLGALGPACCRVLSELSEEQAFHVSYLDIEELSLSGLCQCLVELSTQPATVCHGSATTREAARGEAARRALQYLKIMAGSK
notes: full length human TRBP with lysines 210 and 211 in dsRBD2 replaced with alanines; source: E. coli Rosetta (DE3) pLysS, purified (Ni-NTA agarose); not shown: His6, N-terminal, kept; myc, C-terminal, kept
- binding result [5]: binds

Binder: UCUUCCAGCGGAUAGAAUGGC (ssRNA) [ssRNA_Luc-36]
- binding result (TRBP-WT [1]; single strand): no binding

B14: dsDNA_Luc-36 (dsDNA)
DNA 1: TCTTCCAGCGGATAGAATGGC
DNA 2: CATTCTATCCGCTGGAAGATG
- binding result (TRBP-WT [1]): no binding
